US20160331662A1, “Compositions that Inhibit and Prevent the Formation of Dental Caries and Methods of Using the Same” (priority 2014, published 2016)

What was measured:
[1] = molecular target: T1, iSRCR1 (Homo sapiens, UniProt Q9UGM3); assay: SPR binding of analytes to immobilized iSRCR1 (CM5 chip, 1:1 Langmuir); details: ligand iSRCR1
T1 construct: strongly proves that a single SRCR domain contains the adherence sites for AgI/II and SspB; made in house; host or cells: Drosophila expression system
Protocol: (§1) Real time binding analyses of the SRCR domains with AgI/II fragments were carried out using the BIAcore 2000 system. […] Self association of iSRCR1 or iSRCR123 (at 2 μM) were also determined in a similar manner as described above. Finally to determine the effect of calcium SPR analysis was carried out by dialyzing the analytes and ligands in binding buffer devoid of CaCl2.
(§2) In addition, the SRCR holding two distinct surfaces compounded the elucidation of individual kinetics, and presently there are no modeling protocols available to determine the individual affinities for such a system, therefore for simplicity we have utilized a single site 1:1 Langmuir model. All experiments were carried out in triplicates and the kinetics of the association (KA) and dissociation (KD) rate constants were deduced using the 1:1 Langmuir Kinetic model on the BIA-Evaluation software. The concentration (C in μM) of analyte (FL^AgI/II or FL^SspB at 2 μM) that adhered to the immobilized ligand (iSRCR1, iSRCR123) within the flow cell was calculated using the formula C=(RU/MW)×(1/V), where RU is resonance unit (1 RU=1 pg of bound protein), MW is molecular weight of analyte and V is volume of flow cell (1.2×10^−10 L).

[2] = molecular target: T2, iSRCR123 (Deglycosylated) (Homo sapiens, UniProt Q9UGM3); assay: SPR binding of analytes to on-chip deglycosylated iSRCR123; details: ligand iSRCR123 (Deglycosylated)
T2 construct: multiple SRCR domains have better adherence capability compared to that of a single SRCR domain; made in house; host or cells: Drosophila expression system
Protocol: as §1
(§3) On-chip Deglycosylation of the iSRCR1 and iSRCR123 was carried out after immobilizing them on CM5 sensor chip. Enzymatic deglycosylation was done to remove N- and O-linked carbohydrates from iSRCR1 and iSRCR123. Briefly, after immobilization of iSRCR1 and iSRCR123, deglycosylation was carried out at native conditions by incubating the entire chip surface externally with a cocktail containing a total reaction volume of 40 μl made up of 4 μl of 10×G7reaction buffer, 4 μl of 10% NP40, 4 μl of Neuraminidase (Sigma), 18 μl water and 10 μl of O-glycosidase (New England Biolabs, Inc.,) and similarly following manufacturers protocols for EndoH (New England Biolabs, Inc). Later, the chip was sealed and incubated overnight at 37° C. Subsequently the chip was thoroughly washed with binding buffer (20 mM HEPES, 150 mM NaCl, 2.5 mM CaCl2) to remove the deglycosylating enzymes and other remnants. Binding studies with FL^AgI/II and FL^SspB and subfragments were then carried out as described above and regenerated as described in Table 2.
as §2

[3] = molecular target: T3, iSRCR1 (Deglycosylated) (Homo sapiens, UniProt Q9UGM3); assay: SPR binding of analytes to on-chip deglycosylated iSRCR1; details: ligand iSRCR1 (Deglycosylated)
T3 construct: strongly proves that a single SRCR domain contains the adherence sites for AgI/II and SspB; made in house; host or cells: Drosophila expression system
Protocol: as §1, §3, §2

[4] = molecular target: T4, iSRCR123 (Homo sapiens, UniProt Q9UGM3); assay: SPR binding of analytes to immobilized iSRCR123 (CM5 chip, 1:1 Langmuir); details: for KA / Kd / ka / kd: ligand iSRCR123
T4 construct: multiple SRCR domains have better adherence capability compared to that of a single SRCR domain; made in house; host or cells: Drosophila expression system
Protocol: as §1, §2

[5] = molecular target: T5, SAG (Homo sapiens, UniProt Q9UGM3); assay: SPR binding of analytes to immobilized SAG; details: ligand SAG
T5 construct: from tissue; host or cells: saliva (purified SAG, gift)
Protocol: as §1, §2

[6] = molecular target: T4, iSRCR123; assay: Competition adherence SPR on immobilized iSRCR123; assay type: binding; details: FL injected first
Protocol: (§4) To determine whether AgI/II domains bound to the same site on SRCR domains, competitive binding SPR experiments were conducted in triplicates as previously described where each fragment of AgI/II (FL, A3VP1, or C123) or SspB (FL, A3VP1 or C123) was initially passed over the chip surface immobilized with either iSRCR1, iSRCR123 or SAG for 60 seconds to saturate available binding sites. The response curve of AgI/II or SspB first fragment was recorded, where the maximal RU (RU1) was considered as the base line for the second injection, and thereafter the competing fragment was injected and its response was recorded as RU2. The adherence of the second fragment was then calculated (RU2−RU1) for all SPR competing assay as reported earlier.

[7] = molecular target: T1, iSRCR1; assay: Competition adherence SPR on immobilized iSRCR1; assay type: binding; details: FL injected first
Protocol: as §4

T1 sequence (Q9UGM3 102-202 limits assumed): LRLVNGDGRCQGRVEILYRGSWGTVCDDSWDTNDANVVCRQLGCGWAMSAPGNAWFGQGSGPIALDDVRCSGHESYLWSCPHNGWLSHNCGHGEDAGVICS
T3 sequence (Q9UGM3 102-202): as the sequence (Q9UGM3 102-202 limits assumed) above
T5 sequence (Q9UGM3 20-2413): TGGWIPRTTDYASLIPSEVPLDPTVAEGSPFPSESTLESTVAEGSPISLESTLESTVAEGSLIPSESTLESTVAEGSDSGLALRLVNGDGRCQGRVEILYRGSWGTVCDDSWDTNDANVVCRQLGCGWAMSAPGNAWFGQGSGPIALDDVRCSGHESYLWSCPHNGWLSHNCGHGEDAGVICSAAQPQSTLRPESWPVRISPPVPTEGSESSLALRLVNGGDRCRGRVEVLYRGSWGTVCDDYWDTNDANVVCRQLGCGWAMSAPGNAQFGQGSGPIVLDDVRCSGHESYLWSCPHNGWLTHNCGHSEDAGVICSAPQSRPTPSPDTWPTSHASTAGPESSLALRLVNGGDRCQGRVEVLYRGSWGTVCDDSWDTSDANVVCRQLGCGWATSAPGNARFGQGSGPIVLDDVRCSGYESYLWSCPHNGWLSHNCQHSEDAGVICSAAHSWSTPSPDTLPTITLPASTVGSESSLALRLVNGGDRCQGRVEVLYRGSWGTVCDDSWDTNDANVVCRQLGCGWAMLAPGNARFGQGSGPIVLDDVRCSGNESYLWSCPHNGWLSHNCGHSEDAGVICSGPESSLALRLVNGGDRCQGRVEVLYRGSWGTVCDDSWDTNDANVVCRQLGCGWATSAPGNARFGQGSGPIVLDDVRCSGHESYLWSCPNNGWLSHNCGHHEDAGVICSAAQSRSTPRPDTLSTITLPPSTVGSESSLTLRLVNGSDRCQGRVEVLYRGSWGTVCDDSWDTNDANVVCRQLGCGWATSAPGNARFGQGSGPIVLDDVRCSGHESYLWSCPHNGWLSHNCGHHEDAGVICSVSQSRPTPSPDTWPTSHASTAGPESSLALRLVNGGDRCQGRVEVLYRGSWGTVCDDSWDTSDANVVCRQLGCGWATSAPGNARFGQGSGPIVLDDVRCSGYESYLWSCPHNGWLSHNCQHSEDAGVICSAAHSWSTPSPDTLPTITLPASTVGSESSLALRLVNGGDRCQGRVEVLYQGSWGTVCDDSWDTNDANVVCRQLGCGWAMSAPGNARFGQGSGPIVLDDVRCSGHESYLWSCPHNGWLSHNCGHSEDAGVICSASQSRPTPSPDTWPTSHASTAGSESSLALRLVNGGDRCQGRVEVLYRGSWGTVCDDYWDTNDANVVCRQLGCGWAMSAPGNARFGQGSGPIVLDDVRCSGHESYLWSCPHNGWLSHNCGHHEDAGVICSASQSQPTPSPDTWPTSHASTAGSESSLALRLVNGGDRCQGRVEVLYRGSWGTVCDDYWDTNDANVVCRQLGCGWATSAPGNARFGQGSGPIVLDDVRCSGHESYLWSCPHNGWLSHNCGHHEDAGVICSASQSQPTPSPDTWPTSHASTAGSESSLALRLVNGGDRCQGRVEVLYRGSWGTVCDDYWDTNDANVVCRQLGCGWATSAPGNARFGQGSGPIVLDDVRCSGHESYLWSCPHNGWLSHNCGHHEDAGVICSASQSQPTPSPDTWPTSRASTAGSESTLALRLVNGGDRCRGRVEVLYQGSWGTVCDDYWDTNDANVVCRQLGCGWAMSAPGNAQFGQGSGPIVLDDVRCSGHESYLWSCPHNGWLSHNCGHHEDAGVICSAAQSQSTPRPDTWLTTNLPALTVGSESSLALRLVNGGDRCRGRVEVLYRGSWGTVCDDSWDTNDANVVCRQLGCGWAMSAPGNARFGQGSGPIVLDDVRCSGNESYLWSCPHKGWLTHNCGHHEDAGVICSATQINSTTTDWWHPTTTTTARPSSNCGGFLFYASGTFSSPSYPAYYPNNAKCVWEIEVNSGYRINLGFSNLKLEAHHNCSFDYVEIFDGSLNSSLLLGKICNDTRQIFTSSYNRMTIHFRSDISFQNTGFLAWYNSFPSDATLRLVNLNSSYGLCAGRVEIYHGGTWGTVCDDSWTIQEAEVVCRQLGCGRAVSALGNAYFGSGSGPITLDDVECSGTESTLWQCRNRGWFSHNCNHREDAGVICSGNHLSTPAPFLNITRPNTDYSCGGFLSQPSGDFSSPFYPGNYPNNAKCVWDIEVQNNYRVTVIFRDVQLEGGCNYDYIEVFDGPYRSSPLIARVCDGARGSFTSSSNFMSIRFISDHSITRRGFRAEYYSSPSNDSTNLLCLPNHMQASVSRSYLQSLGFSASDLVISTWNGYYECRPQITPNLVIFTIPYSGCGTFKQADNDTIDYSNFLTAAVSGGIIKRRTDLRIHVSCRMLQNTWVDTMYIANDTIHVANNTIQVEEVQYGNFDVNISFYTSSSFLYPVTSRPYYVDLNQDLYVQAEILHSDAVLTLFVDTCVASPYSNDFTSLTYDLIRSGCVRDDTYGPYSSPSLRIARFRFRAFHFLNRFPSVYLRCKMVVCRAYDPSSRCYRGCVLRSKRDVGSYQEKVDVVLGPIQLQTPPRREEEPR
T2 sequence (Q9UGM3 102-463 limits assumed): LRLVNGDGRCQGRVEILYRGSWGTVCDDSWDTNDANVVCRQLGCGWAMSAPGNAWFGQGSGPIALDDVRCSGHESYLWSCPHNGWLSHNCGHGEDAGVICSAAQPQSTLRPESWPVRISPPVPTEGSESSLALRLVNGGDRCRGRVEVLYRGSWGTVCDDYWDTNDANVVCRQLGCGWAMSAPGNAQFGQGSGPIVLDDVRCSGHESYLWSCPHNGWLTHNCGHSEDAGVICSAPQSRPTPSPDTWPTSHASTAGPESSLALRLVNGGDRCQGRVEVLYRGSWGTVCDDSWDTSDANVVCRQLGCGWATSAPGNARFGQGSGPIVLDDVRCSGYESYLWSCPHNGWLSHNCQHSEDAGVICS
T4 sequence (Q9UGM3 102-463 limits assumed): as above

Molecule | KA [1] [M⁻¹] | Kd [1] [nM] | ka [1] [M⁻¹ s⁻¹] | kd [1] [s⁻¹] | KA [2] [M⁻¹] | Kd [2] [nM] | ka [2] [M⁻¹ s⁻¹] | kd [2] [s⁻¹] | KA [3] [M⁻¹] | Kd [3] [nM] | ka [3] [M⁻¹ s⁻¹] | kd [3] [s⁻¹] | KA [4] [M⁻¹] | Kd [4] [nM] | ka [4] [M⁻¹ s⁻¹] | kd [4] [s⁻¹] | other results
A3VP1^AgI/II: S. mutans AgI/II apical A3VP1 fragment (54.4 kDa) (protein) AANEADYQAKLTAYQTELARVQKANADAKAAYEAAVAANNAANAALTAENTAIKKRNADAKADYEAKLAKYQADLAKYQKDLADYPVKLKAYEDEQASIKAALAELEKHKNEDGNLTEPSAQNLVYDLEPNANLSLTTDGKFLKASAVDDAFSKSTSKAKYDQKILQLDDLDITNLEQSNDVASSMELYGNFGDKAGWSTTVSNNSQVKWGSVLLERGQSATATYTNLQNSYYNGKKISKIVYKYTVDPKSKFQGQKVWLGIFTDPTLGVFASAYTGQVEKNTSIFIKNEFTFYDEDGKPINFDNALLSVASLNRENNSIEMAKDYTGKFVKISGSSIGEKNGMIYATDTLNFRQGQGGARWTMYTRASEPGSGWDSSDAPNSWYGAGAIRMSGPNNSVTLGAISSTLVVPADPTMAIETGKKPNIWYSLNGKIRAVNVPKVTKEKPTPPVKPTAPTKPTYETEKPLKPAPVAPNYEKEPTPPTRTPDQ | 8.57e+06 | 117 | 28000 | 0.00327 | 1.22e+06 | 818 | 4070 | 0.00333 | 1.92e+06 | 520 | 5270 | 0.00274 | 7.98e+06 | 125 | 19900 | 0.00249 | –
C123^AgI/II: S. mutans AgI/II C-terminal C123 fragment (57.3 kDa) (protein) VNKEIRNNNDINIDRTLVAKQSVVKFQLKTADLPAGRDETTSFVLVDPLPSGYQFNPEATKAASPGFDVTYDNATNTVTFKATAATLATFNADLTKSVATIYPTVVGQVLNDGATYKNNFTLTVNDAYGIKSNVVRVTTPGKPNDPDNPNNNYIKPTKVNKNENGVVIDGKTVLAGSTNYYELTWDLDQYKNDRSSADTIQKGFYYVDDYPEEALELRQDLVKITDANGNEVTGVSVDNYTNLEAAPQEIRDVLSKAGIRPKGAFQIFRADNPREFYDTYVKTGIDLKIVSPMVVKKQMGQTGGSYENQAYQIDFGNGYASNIIINNVPKINPKKDVTLTLDPADTNNVDGQTIPLNTVFNYRLIGGIIPADHSEELFEYNFYDDYDQTGDHYTGQYKVFAKVDITFKDGSIIKSGAELTQYTTAEVDTAKGAITIKFKEAFLRSVSIDSAFQAESYIQMKRIAVGTFENTYINTVNGVTYSSNTVK | 6.46e+06 | 151 | 15400 | 0.00232 | 458000 | 2180 | 3010 | 0.00658 | 48100 | 20800 | 1180 | 0.0246 | 1.15e+07 | 87 | 8290 | 0.000721 | –
FL^SspB: S. gordonii SspB full length construct (151.9 kDa) (protein) DEVTETTSTSTVEVATTGNPATNLPEAQGEMSQVAKESQAKAGSKESALPVEVSSADLDKAVADAKSAGVKVVQDETKDKGTATTATDNAQKQDEIKSDYAKQAEEIKTTTEAYKKEVAAHQAETDKINAENKAADDKYQKDLKSHQEEVEKINTANATAKAEYEAKLAQYQKDLATVKKANEDSQQDYQNKLSAYQTELARVQKANAEAKEAYEKAVKENTAKNEALKVENEAIKQRNETAKATYEAAMKQYEADLAAIKKANEDNDADYQAKLAAYQTELARVQKANAEAKEAYDKAVKENTAKNTAIQAENEAIKQRNETAKATYDAAVKKYEADLAAVKQANATNEADYQAKLAAYQTELARVQKANADAKATYEKAVEDNKAKNAAIKAENEEIKQRNAVAKTDYEAKLAKYEADLAKYKKEFAAYTAALAEAESKKKQDGYLSEPRSQSLNFKSEPNAIRTIDSSVHQYGQQELDALVKSWGISPTNPDRKKSRAYSYFNAINSNNTYAKLVLEKDKPVDVTYTGLKNSSFNGKKISKVVYTYTLKETGFNDGTKMTMFASSDPTVTAWYNDYFTSTNINVKVKFYDEEGQLMNLTGGLVNFSSLNRGNGSGAIDKDAIESVRNFNGRYIPISGSSIKIHENNSAYADSSNAEKSLGARWNTSEWDTTSSPNNWYGAIVGEITQSEISFNMASSKSGNIWFAFNSNINAIGVPTKPVAPTAPTQPMYETEKPLEPAPVAPSYENEPTPPVKTPDQPEPSKPEEPTYETEKPLEPAPVAPSYENEPTPPVKTPDQPEPSKPEEPNYETEKPLEPAPVAPSYENEPTPPVKIPDQPEPSKPEEPTYDPLPTPPLAPTPKQLPTPPVVPTVHFHYSSLLAQPQINKEIKNEDGVDIDRTLVAKQSIVKFELKTEALTAGRPKTTSFVLVDPLPTGYKFDLDATKAASTGFDTTYDEASHTVTFKATDETLATYNADLTKPVETLHPTVVGRVLNDGATYTNNFTLTVNDAYGIKSNVVRVTTPGKPNDPDNPNNNYIKPTKVNKNKEGLNIDGKEVLAGSTNYYELTWDLDQYKGDKSSKEAIQNGFYYVDDYPEEALDVRPDLVKVADEKGNQVSGVSVQQYDSLEAAPKKVQDLLKKANITVKGAFQLFSADNPEEFYKQYVATGTSLVITDPMTVKSEFGKTGGKYENKAYQIDFGNGYATEVVVNNVPKITPKKDVTVSLDPTSENLDGQTVQLYQTFNYRLIGGLIPQNHSEELEDYSFVDDYDQAGDQYTGNYKTFSSLNLTMKDGSVIKAGTDLTSQTTAETDATNGIVTVRFKEDFLQKISLDSPFQAETYLQMRRIAIGTFENTYVNTVNKVAYASNTVRTTTPIPRTPDKPTPIPTPKPKDP | 3.91e+06 | 256 | 9250 | 0.00237 | 5.24e+06 | 191 | 6920 | 0.00132 | 7.97e+06 | 125 | 8300 | 0.00104 | 2.38e+07 | 42.1 | 18200 | 0.000759 | KA [5]: 1.63e+08 M⁻¹; ka [5]: 320000 M⁻¹ s⁻¹; kd [5]: 0.00197 s⁻¹; inhibition of binding of the A3VP1 fragment of the same protein [6]: 68%; inhibition of binding of the C123 fragment of the same protein [6]: 76%; quantity of protein that adhered to iSRCR123, higher than iSRCR1 ([4]; analyte at 2 μM, iSRCR123 versus iSRCR1): 43%; inhibition of binding of the A3VP1 fragment of the same protein [7]: 54%; inhibition of binding of the C123 fragment of the same protein [7]: 23%
